Measured values published in PMC8511952.

Key:
Assay in all cases: fluorescence anisotropy
Conditions in all cases: unmodified in vitro transcript; FA: 5 nM labeled tRNA, 25 mM Tris-HCl pH 8, 50 mM NaCl, 1 mM MgCl2, room temperature, 30 min
[1] = test system: MBP-ERS2.5W P14R (Homo sapiens)
[2] = test system: MBP-ERS2.5W E205G (Homo sapiens)
[3] = test system: MBP-ERSRC E205G (Homo sapiens)

tRNAGlu(TTC)
Kd [1]: 94 nM | Kd [2]: 54.3 nM | Kd [3]: 277 nM
